Tested on: K4 kissing-loop RNA reporter
Assay: apparent KD of K4 kissing-loop reporter; higher = weaker reporter binding
Details: Eterna round: R107
Protocol: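 RNA-MaP round R107: designed RNA switches with theophylline, tryptophan, arginine or FMN aptamers are transcribed on-chip within common flanks. They are titrated with a labelled K4 kissing-loop RNA reporter in RNA-MaP buffer (100 mM Tris pH 7.5, 80 mM KCl, 4 mM MgCl2), without ligand or with the indicated ligand. Median apparent KD per design.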

[1] = input ligand: theophylline 20 uM
[2] = input ligand: tryptophan 2.4 mM
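Note: bound reporter read as fluorescence of individual clusters on recovered sequencing chips by microscopy, with normalized cluster intensities fitted with a binding model.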

Sequence	apparent KD of K4 kissing-loop reporter (input ligand: FMN 200 uM)	apparent KD of K4 kissing-loop reporter (input ligand: arginine 13.2 mM)	apparent KD of K4 kissing-loop reporter (input ligand: none)	apparent KD of K4 kissing-loop reporter [1]	apparent KD of K4 kissing-loop reporter [2]
AAGUCAUAUAGAAGGAGCGUGUUUUUUAAUUUGUUUUCAUGAUCGAGUGAUGUUCGAUAUACACAGGUAGGUCGCUGUAUAAUAA [hbob_SS_Arginine_B_2t142]	119 nM	141 nM	131 nM	127 nM	106 nM
AAGUGAUGUUGUAGUGAUGUUGUGAUGUUGCAGGAUAUAUAGUGAUGUAGAAGGGUAAGUACUCAUGUUGUUAGUAAGUGAUGUU [bttutmullin]	91.5 nM	43.2 nM	81.7 nM	63.7 nM	74.2 nM
AAGUGGGAACGGCCCAAUAAAGUGUUUGUCAAGGAUAUUAUUCACAUAAGAAGGUGACAGACCACCUCCGGAGUGAUGUUUUGGA [theeternabot_sameState_KL_FMN_A_42]	581 nM	443 nM	719 nM	508 nM	539 nM
AAGUUAUGAUCUGAUACCAGACUUUAUCUUGUUUAUAAGUCAAGUGAUGUUUGACUAUUAGUCCCUUGGCAGCAGUAUUGUUUAA [#18 K4 Theophylline B Same State]	263 nM	268 nM	302 nM	228 nM	255 nM
AAGUUGAACUGAAGGAGCGAGAAAUAGAAUGUAAGAAUAUAUGCUAGUGAUGUUAGAAAUUCUCAGGUAGGUCGCAGUAAGAAUU [V1]	368 nM	357 nM	442 nM	510 nM	317 nM
AAUAAUGGAGUGAUGUUCCAGUAAUGGGAUACCAGACAUGAAAAUGUCCCUUGGCAGCUCAAAGGUCUAGUGAUGUUAUAAAGAA [KL-SSTheo-A6]	475 nM	510 nM	554 nM	401 nM	377 nM
AAUAUAUAGUGAAGGAGCGCGAUAAGCAGUGAUGUUGCUUAGUUAUUAGUGUUUAUUUUUACGCAGGUAGGUCGCACUAUAUAUA [JR_ExcArginiB_Sub017]	115 nM	105 nM	114 nM	101 nM	114 nM
AAUAUCUAGUAUAUUUUUAAUAAAACAGAUACCAGUGAUAAUAGACACCCUUGGCAGCUGGUCGAGUGAUGUUCGUUUAUAUUAA [JR_SSTheophyA_Sub006]	85.5 nM	83.6 nM	104 nM	176 nM	57.3 nM
AAUAUGAAGCAGUGAUGUUGCUUAUGAGAAGGAGCGCACGAAAGUGCAGGUAGGUCGCUCAGCCAAGUGGACGAAAACGUCCACA [whbob_SS_Arginine_A_sa107]	98.3 nM	99.9 nM	86.6 nM	87.2 nM	91 nM
AAUGCAUAGUGAAGGAGCGCGAUUUGCAGUGAUGUUGCAAAUUUAAACAAUCUUAUCUUUUCGCAGGUAGGUCGCACUAUGCAUA [JR_Nu_SSArginiB_Sub021]	94.1 nM	90.3 nM	88.2 nM	80.9 nM	88.7 nM
AAUGUACAGGGAAGGAGCGUAGUCCAGUGAUGUUGGAGUUAAAUACCAGUGAUGUUGGUUAUACAGGUAGGUCGCCCUAAAGUGC [Exclusion Arginine B Gf 4]	87 nM	65.3 nM	80.9 nM	84.3 nM	76 nM
AAUUUAUAUUUAUUCUUUAAAUGUUCAGAAGGAGCGUGAAUUAUCACAGGUAGGUCGCUGAGCUAGUGAUGUUAGCUAUAUACUA [JR_ExcArginiA_Sub007]	50.3 nM	95.3 nM	67.7 nM	97 nM	47.5 nM
ACAAAAGUGAUGUUUUUGAACGUGCGCGAUACCAGAAAUGUCUUCUUCCCUUGGCAGCGCUAUUACUUGUAAGAAAGUACGUUUC [theeternabot_sameState_KL_Theo_A_17]	969 nM	528 nM	870 nM	774 nM	490 nM
ACAAUGAUCAAAGGAUAUCGUAAGUUAUACAUCACGCGAUGAUUCAGAGGCGAGUGAUGUUUGUCUCGAGAAGGUUGGUACCGUC [theeternabot_exclusion_KL_FMN_B_37]	366 nM	539 nM	521 nM	599 nM	568 nM
ACACUAUCGUCAUAGACGGUAGUGAAAGCUGAGGAUAUGAGUGAUGUUAGAAGGUAGCAAGACUGUAUCGAAUAGAUACAGUCAA [FmnA 5 #K4BetweenAptamer #OpenEnded]	227 nM	111 nM	163 nM	162 nM	141 nM
ACAUGACGUGCGCCCGUCAUGAAACGUGCAAAGGAUAUUCCGUUUUGAAGAAGGUUGCGGUAGUGUAGUGAUGUUGCUCCGCCGU [theeternabot_sameState_KL_FMN_A_11]	512 nM	360 nM	343 nM	315 nM	347 nM
ACCAUCAAAGAUGGCCAGGACUCCGCUGAUACCAGAGUGGAAACACUCCCUUGGCAGCAGGUGAGUGAUGUUCACAGUCCAUGGA [Omel KL Theo A SS B v4]	374 nM	348 nM	421 nM	380 nM	341 nM
ACCGCAUUGGGAUGAUCCCAAUGCGCUGGUCGAGGACCGGUACGGCCGCCACUCGUCCAGUGAUGUUGGAAUUGGGCUACUGAAG [KL-XTryp-A11]	134 nM	86.7 nM	183 nM	195 nM	61.1 nM
ACGACGCAUAGUGAUACCAGCAUUAUAUGAGUGAUGUUCUACCUAAAAUGGUAAUAAUUAUGCCCUUGGCAGCACUAUGCGUCAG [KL-SSTheoB3]	340 nM	400 nM	409 nM	501 nM	247 nM
ACGAUUUACAGAAGGAGCGUGUAUUUAUCUACAAUUUUCUUAGCGAGUGAUGUUCGUUAUACACAGGUAGGUCGCUGUAUAUCGA [JR_ExcArginiB_Sub013]	185 nM	214 nM	201 nM	199 nM	174 nM
ACGCCGAGGACGGCCGCCACUAUGACGAAGUCCGUUCCUAUUACUGCGCGAGUGAUGUUCACGACUAGGACCGGGUCUAUGAGCU [theeternabot_exclusion_KL_Trp_B_28]	775 nM	708 nM	843 nM	771 nM	631 nM
ACGGCGCUGGAACCAGUAAUGGGAAGAAUGCGAGGACCGGUACGGCCGCCACUCGCUUCCAGUGAUGUUGGAAGUGAGCCAACAA [Geerzaedre]	272 nM	275 nM	304 nM	277 nM	181 nM

Sequence	apparent KD of K4 kissing-loop reporter (input ligand: FMN 200 uM)	apparent KD of K4 kissing-loop reporter (input ligand: arginine 13.2 mM)	apparent KD of K4 kissing-loop reporter (input ligand: none)	apparent KD of K4 kissing-loop reporter [1]	apparent KD of K4 kissing-loop reporter [2]
ACGGGUCGACGAAGGAGCGCCGUGCAGUGAUGUUGCAGUUAGAUCCAGUGAUGUUUGGGCCGGCAGGUAGGUCGCGUCGACUCAU [Exclusion Arginine B GF 21]	344 nM	225 nM	278 nM	291 nM	243 nM
ACGUCACGUAAACUCGUGGUUUCGAUCGAUACCAGUAGCGAGAGUUACCCUUGGCAGCGACAUGAGUGAUGUUCAUGUACGAAGA [KL-XTheoA1]	101 nM	89.1 nM	97 nM	102 nM	91.7 nM
ACGUCACGUAUACUCGUGGUUUCGAUCGAUACCAGUAGCGAGAGUUACCCUUGGCAGCGACAUGAGUGAUGUUCAUGUGCGAAGA [KL-XTheo-A3 #analogue]	118 nM	106 nM	112 nM	104 nM	111 nM
ACGUCACGUAUACUGGUGGUUUCGAUCGAUACCAGUAGCGAGAGUUACCCUUGGCAGCGACAUGAGUGAUGUUCAUGUAUGAAGA [KL-XTheo-A1 #analogue]	100 nM	111 nM	102 nM	113 nM	95.7 nM
ACGUCCGGGUUAAUCGUGGGCGUGGUGGAUACCAGUUCUUCAAUGAACCCUUGGCAGCCACGUGAGUGAUGUUCACGUGCGAUGA [#15 K4 Theophylline A Exclusion]	98.7 nM	83.3 nM	89.5 nM	88.7 nM	88.6 nM
ACUGAGCAUGCGGCCGCCACUUCAGAACGUCGCCCAAAGGGCGACGCCUCCACAGUGAUGUUGUGGAGGACCGGGCAUGUUCAGA [Omei KL Tryp B Exc A v2]	152 nM	113 nM	136 nM	111 nM	144 nM
ACUUGAGCACAUAGCACACCAAGCAGUAGGUAGGAUAUCCGGCUUAGGAGAAGGACCAUGCAGUGAUGUUGCAUGCUCCUCCAUG [Zaribies]	258 nM	95.8 nM	76 nM	92.3 nM	99.9 nM
AGAAAAGGGACGAUCGUCGAGUUGCCAGAAGGAGCGGUAAUUUUACCAGGUAGGUCGCUGGCCCAGUGAUGUUGGGCUUUUAAGA [Biisinaor]	105 nM	96.5 nM	125 nM	133 nM	92.4 nM
AGAAACUUGUAUACAGGGCAUGCCAGAGAUACCAGUCAAAUGGAAGGCCCUUGGCAGCUCAGGCGAGUGAUGUUCGCAGGCUGAC [Exclusion Theophylline A GF 20]	132 nM	113 nM	142 nM	145 nM	105 nM
AGAACUGUCUGAGAUACCAGCCAUAGGAGUGAUGUUCCUAGCUCCACAAAGUGGAGCCAUAGCCCUUGGCAGCUCAGACAGUUCA [Omei KL Theo B SS A v7]	1040 nM	763 nM	1150 nM	771 nM	823 nM
AGACUACCACACUGUCAAUAGACAGUGAACUAGGAUAUGCUGAUAAGCAGAAGGAGUGAUGUUCCUUGGUAGUCAAUAAAAUAAU [FmnAX 13 U67]	308 nM	270 nM	298 nM	330 nM	289 nM
AGACUACCACACUGUCAAUAGACAGUGAAUUAGGAUAUGCUGAUAAGCAGAAGGAGUGAUGUUCCCAGGUAGUCAAUAAAAUAAU [FmnAX 13 U30+C66]	169 nM	124 nM	167 nM	202 nM	177 nM
AGACUACCACACUGUCAAUAGACAGUGAGCUAGGAUAUGCUGAUAAGCAGAAGGAGUGAUGUUCCUCGGUAGUCAAUAAAAUAAU [FmnAX 13 G29+C67]	373 nM	357 nM	364 nM	503 nM	378 nM
AGACUACCACACUGUCAAUAGACAGUGAGGUAGGAUAUGCUGAAAAGCAGAAGGACCAGUGAUGUUGGUAGGUAGUCAAAAUAAA [FmnAX 11 #SwitchBubble #StaticStem #K4Early]	185 nM	112 nM	84.8 nM	128 nM	74.9 nM
AGAGAUAUAUGAGGAUAUGGGUUUGUUAAUGAGUUAGUUUUAGUGUUGUUUGGUUAGUGAUGUUAUUUAGAAGGCGUGAGUGAUG [aatrmullin]	94.2 nM	62.3 nM	61.4 nM	78.4 nM	62.2 nM
AGAGUCAGACAAAAGUCUGGCUCAGCCGAAGGAGCGUCCGAAAGGACAGGUAGGUCGCGGUUGCAUGAGUGAUGUUGAUGUUUUU [KL-SSArg-A23]	546 nM	372 nM	425 nM	559 nM	500 nM
AGAGUUAUGCGAGGAUAUGCAGUUAGUACUCAAAGAGUACUAACGGCAGAGUGAUGUUCUGUGAAAGCAGAAGGUGCAUAACUCA [Omei KL FMN B SS B v8]	195 nM	837 nM	1370 nM	857 nM	923 nM
AGAUUCGACACGGCCGCCACUUCCGGUGGCUGGUGUCAUGGUGCGCGUGAGUGAUGUUUAUGUGGGAGGACCGGGUGUUGAGUCU [whbob_Ex_Tryp_B_w42]	616 nM	393 nM	654 nM	559 nM	704 nM
AGCAAAACCAAAGGAUAUUGGCAGUCGAUGUACCAUGUUCCCGUAGCAGGUUGAGUGAUGUUUAAGCAAGAAGGUUGGCGUUUGG [theeternabot_exclusion_KL_FMN_B_12]	560 nM	302 nM	436 nM	457 nM	368 nM
AGCAGUGAUGUUGCAUUUAAAAUGACCGAUACCAGUAUCGAUAGAUACCCUUGGCAGCGGAUUUCCGCAACGACUAGGAAACUAG [Ex Theophylline A K4 15]	324 nM	377 nM	436 nM	504 nM	327 nM
AGCCAGCGUACAUCACUCUGGCUGCUGGAUACCAGCUCGGAAACGAGCCCUUGGCAGCCAGAACUUGCAGUGAUGUUGCAAGUAA [Design12]	460 nM	276 nM	402 nM	458 nM	345 nM

Source: the supplement of paper PMC9170038
